The text below walks through data of paper PMC12421854.

For test [1], the target named is ForJ (Streptomyces formicae). The experiment in a line: non-reducing SDS-PAGE; purified ForJ exposed to increasing DTT; no beta-mercaptoethanol and no boiling before loading; monomers and dimers.
In test [2] the target is ForJ (Streptomyces formicae). The test can be described thus: mass photometry; ReFeyn mass photometry of purified ForJ reduced with TCEP; monomers to dimer.
In test [3] the target is ForJ (Streptomyces formicae). The test can be described thus: non-reducing SDS-PAGE; purified ForJ exposed to increasing H2O2; no beta-mercaptoethanol and no boiling before loading; dimers to dimer of dimers.
For test [4], the target named is ForJ (Streptomyces formicae). The test can be described thus: mass photometry; ReFeyn mass photometry of purified ForJ without reducing agent (oxidized); 38 kDa and 76 kDa states both present; dimers to dimer of dimers.

With ForJ (natural protein), the stoichiometry N turned out to be 2 in test [1], 2 in test [2], 4 in test [3] and 4 in test [4].

Broadly, the stoichiometry N is the number of molecules, sites or subunits per partner or assembly.
